{"source": "patent US6677130", "molecular_target": "T1, GST-ATF2 substrate, P15336", "T1 chain": "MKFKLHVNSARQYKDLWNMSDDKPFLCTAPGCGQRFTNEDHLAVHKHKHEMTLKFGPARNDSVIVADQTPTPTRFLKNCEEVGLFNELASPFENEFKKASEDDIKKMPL"}
{"protein": "epitope-tagged p38-2 (3xHA-p38-2) (protein) MSGPRAGFYRQELNKTVWEVPQRLQGLRPVGSGAYGSVCSAYDARLRQKVAVKKLSRPFQSLIHARRTYRELRLLKHLKHENVIGLLDVFTPATSLEDFSEVYLVTTLMGADLNNIVKCQALSDEHVQFLVYQLLRGLKYIHSAGIIHRDLKPSNVAVNEDCELRILDFGLARQADEEMTGYVATRWYRAPEIMLNWMHYNQTVDIWSVGCIMAELLQGKALFPGSDYIDQLKRIMEVVGTPSPEVLAKISSEHARTYIQSLPPMPQKDLSSIFRGANPLAIDLLGRMLVLDSDQRVSAAEALAHAYFSQYHDPEDEPEAEPYDEGVEAKERTLEEWKELTYQEVLSFKPPEPPKPPGSLEIEQ", "values": [{"measurement": "phosphorylation of GST-ATF2 by immunoprecipitated HA-p38-2 ([gamma-32P]ATP, SDS-PAGE, autoradiography)", "result": "the inducible phosphorylation of ATF2 depends on a kinase cascade comprised of MEK6 and p38-2"}]}
